PMC7316157 (Journal of the American Chemical Society, 2012)
Read-outs that look alike come from different tables or passages of the source. One block for each molecule: values may come before it.

Experiments:
L-Ac-(FEFE)2-NH2 [1] = test: ITC
[2] = biological target: the molecule itself; test: TEM + CD + IR spectroscopy of fibrils
L-Ac-(FEFE)2-NH2 [3] = biological target: T1, L-Ac-(FEFE)2-NH2; test: ITC
T1 peptide: Ac-FEFEFEFE-NH2

[4] = biological target: the molecule itself; test: isotope-edited IR spectroscopy

dH (L-Ac-(FEFE)2-NH2 [1]): -31.6 kcal/mol
Molecule: D-Ac-(FKFK)2-NH2 (peptide)

B1: L-Ac-(FKFE)2-NH2 (peptide)
peptide: Ac-FKFEFKFE-NH2
binding result [2]: binds

dH (L-Ac-(FEFE)2-NH2 [3]): -40.9 ± 0.6 kcal/mol
B2: L-Ac-(FKFK)2-NH2 (peptide)
peptide: Ac-FKFKFKFK-NH2

B3: L-Ac-(FKFE)2-NH2 doubly 1-13C-labeled at Phe 1/Phe 7 (peptide)
peptide: Ac-F(1‑13C)KFEFKF(1‑13C)E-NH2
binding result [4]: binds
